The results in this text go back to paper PMC9559756.

Assay [1] addresses untagged-cpAQP1aa-243 (C-terminally truncated aquaporin 1aa from Anabas testudineus, climbing perch) (Anabas testudineus (climbing perch)). The assay can be described thus: crystal structure; untagged-cpAQP1aa-243, hanging-drop vapor diffusion, 4°C; reservoir 100 mM Tris-HCl pH 7.8, 5% γ-PGA, 30% PEG400, D-sorbitol additive; space group P42_(1)2, one monomer in the asymmetric unit; 1.9 Å.

The target is the same in assay [2]. Briefly: crystal structure; untagged-cpAQP1aa-243, hanging-drop vapor diffusion, 4°C; reservoir 300 mM lithium sulfate, 100 mM ADA pH 6.5, 30% PEG400, dextran sulfate additive; space group C222_(1), four monomers in the asymmetric unit; 3.5 Å.

Usually stoichiometry N stands for the number of molecules, sites or subunits per partner or assembly. In the case of “untagged-cpAQP1aa-243 (C-terminally truncated aquaporin 1aa from Anabas testudineus, climbing perch) (domain or fragment)”, the stoichiometry N in assay [1] and in assay [2] was 4 each time.
